# Results published in publication PMC10954455.
# Where a chain is given by its changes, count along the chain named.
# B1: CSTB G4 in dsDNA (mixed)
# DNA 1: CCTGAAGCAGACAGCTAGTGAATTCGGGGCGGGGCGCGGGGCGGGGTACTTGCGTATAACTGTTCCATAGT
# DNA 2: ACTATGGAACAGTTATACGCAAGTATTTTTTTTTTTTTTTTTTTTTGAATTCACTAGCTGTCTGCTTCAGG
# B2: B4-dx2 G4 in dsDNA (mixed)
# DNA 1: CCTGAAGCAGACAGCTAGTGAATTCGGATCTGAGAATCAGATGTGGGTGGGTGGGTACTTGCGTATAACTGTTCCATAGT
# DNA 2: B1 DNA 2
# B3: MYC G4 in dsDNA (mixed)
# DNA 1: CCTGAAGCAGACAGCTAGTGAATTCGGGTGGGGAGGGTGGGGTACTTGCGTATAACTGTTCCATAGT
# DNA 2: B1 DNA 2
# B4: non-G4 dsDNA (dsDNA)
# DNA 1: CCTGAAGCAGACAGCTAGTGAATTCAAAAAAAAAAAAAAAAAAAAATACTTGCGTATAACTGTTCCATAGT
# DNA 2: B1 DNA 2
# B5: BCL-2 G4 in dsDNA (mixed)
# DNA 1: CCTGAAGCAGACAGCTAGTGAATTCGGGCGCGGGAGGAAGGGGGCGGGTACTTGCGTATAACTGTTCCATAGT
# DNA 2: B1 DNA 2
# B6: C9orf72 G4 in dsDNA (mixed)
# DNA 1: CCTGAAGCAGACAGCTAGTGAATTCGGGGCCGGGGCCGGGGCCGGGGTACTTGCGTATAACTGTTCCATAGT
# DNA 2: B1 DNA 2
# B7: Tel G4 in dsDNA (mixed)
# DNA 1: CCTGAAGCAGACAGCTAGTGAATTCGGGTTAGGGTTAGGGTTAGGGTACTTGCGTATAACTGTTCCATAGT
# DNA 2: B1 DNA 2
# B8: C-Kit G4 in dsDNA (mixed)
# DNA 1: CCTGAAGCAGACAGCTAGTGAATTCGGGCGGGCGCGAGGGAGGGTACTTGCGTATAACTGTTCCATAGT
# DNA 2: B1 DNA 2
# B9: T4B1 G4 in dsDNA (mixed)
# DNA 1: B8 DNA 1 with G27T, G28T, C29T, G30T, C33T, C35G, A37T, A41T
# DNA 2: B1 DNA 2
# B10: T1B1 G4 in dsDNA (mixed)
# DNA 1: CCTGAAGCAGACAGCTAGTGAATTCGTGGTGGGTGGGTGGGTACTTGCGTATAACTGTTCCATAGT
# DNA 2: B1 DNA 2
# B11: PDGFRB G4 in dsDNA (mixed)
# DNA 1: CCTGAAGCAGACAGCTAGTGAATTCGGGGGGGCGGCGGGGTACTTGCGTATAACTGTTCCATAGT
# DNA 2: B1 DNA 2
# B12: MYOG in dsDNA (no G4 formed) (mixed)
# DNA 1: B11 DNA 1 with G29T, G34T, C36G, G38A
# DNA 2: B1 DNA 2
# Target: Human DNA topoisomerase 1 (Top1) (Homo sapiens, UniProt P11387 1-765)
# Sequence (P11387 whole entry): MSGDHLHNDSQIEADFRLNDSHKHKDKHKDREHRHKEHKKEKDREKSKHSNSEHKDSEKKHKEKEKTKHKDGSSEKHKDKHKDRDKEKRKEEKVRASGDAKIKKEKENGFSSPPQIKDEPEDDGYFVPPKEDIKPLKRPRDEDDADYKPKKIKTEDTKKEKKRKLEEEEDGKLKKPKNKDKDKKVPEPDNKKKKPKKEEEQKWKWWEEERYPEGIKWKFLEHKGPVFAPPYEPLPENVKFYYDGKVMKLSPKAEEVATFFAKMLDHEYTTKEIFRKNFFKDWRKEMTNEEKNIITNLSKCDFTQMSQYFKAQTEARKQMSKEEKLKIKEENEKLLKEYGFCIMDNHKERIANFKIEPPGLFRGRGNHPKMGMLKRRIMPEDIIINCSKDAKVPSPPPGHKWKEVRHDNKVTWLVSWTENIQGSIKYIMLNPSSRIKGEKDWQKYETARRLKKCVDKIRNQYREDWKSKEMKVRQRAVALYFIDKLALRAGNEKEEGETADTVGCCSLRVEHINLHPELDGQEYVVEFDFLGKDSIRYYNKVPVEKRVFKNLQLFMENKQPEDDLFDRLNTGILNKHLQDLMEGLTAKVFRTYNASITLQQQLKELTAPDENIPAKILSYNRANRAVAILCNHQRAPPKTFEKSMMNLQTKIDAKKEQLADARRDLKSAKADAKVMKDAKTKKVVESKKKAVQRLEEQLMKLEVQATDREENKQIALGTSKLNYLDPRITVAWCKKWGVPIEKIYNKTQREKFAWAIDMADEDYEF
# Assay: EMSA
row,Binder,binding result
1,B1,binds
2,B2,binds
3,B3,binds
4,B4,no binding
5,B5,binds
6,B6,binds
7,B7,binds
8,B8,binds
9,B9,binds
10,B10,binds
11,B11,binds
12,B12,no binding
